Assay results: the DeepSol protein solubility set

Assay: soluble on expression in E. coli; label from the status in PepcDB or PDB records

Sequence	soluble on expression in E. coli
MGSDKIHHHHHHAATRLKRRKFPTINEEFYYNQLENGMTVFLIPKESFKETLAVMSSRFGSIDTNFTVNGKKKSYLAGIAHLLEHQLFEMNKQKDAAYEFTKLGAESNAYTTFDKTIYYFSTADNIKKNLDLLQEFTSQINFTDMSIEKEKKIITQEFNMYQDDSDDYLYQVILSKLYPQTSLAEDITGNRDSIDKLTKNNLEENFHYFYQPENLTLLVAGDFDVKRVYKDIVTTQRQLPDRPKFEIKRSPLKLLPITPTSSMQMDISISKLAVGFRFNFIKKKRKSLIKERLLLKLFFLLLFGWTSEHYQQWYEDRKIDDSFELKIEVSTSYQFVVILLDTKEPIAMSNKIGQTIKKFKTDTNLSASHLQTVKKELYGDFIRSLDSLEALSSQFIDNLWGEETYFDFPTVLQNIEIKDVLEFGEKITKEMQLTDFTLFPK	not soluble
MAVDDAQALALFLRDRTGRSSHTLRAYGAELRRLMRWCGTHGFGPFSDLTRQQLLAYRHTLEHGSSGTANTTPPLSEATRTRALAVVASLYGYWYATGYLHANPAAGLSAGSRLEHHHHHH	not soluble
MHHHHHHSSGVDLGTENLYFQSMMASQNSFRIEYDTFGELKVPNDKYYGAQTVRSTMNFKIGGVTERMPTPVIKAFGILKRAAAEVNQDYGLDPKIANAIMKAADEVAEGKLNDHFPLVVWQTGSGTQTNMNVNEVISNRAIEMLGGELGSKIPVHPNDHVNKSQSSNDTFPTAMHIAAAIEVHEVLLPGLQKLHDALDAKSKEFAQIIKIGRTHTQDAVPLTLGQEFSGYVQQVKYAMTRIKAAMPRIYELAAGGTAVGTGLNTRIGFAEKVAAKVAALTGLPFVTAPNKFEALAAHDALVELSGAMNTTACSLMKIANDIRFLGSGPRSGLGELILPENEPGSSIMPGKVNPTQCEAMTMVAAQVMGNHVAVTVGGSNGHFELNVFKPMMIKNVLHSARLLGDASVSFTENCVVGIQANTERINKLMNESLMLVTALNPHIGYDKAAKIAKTAHKNGSTLKETAIELGYLTAEQFDEWVKPKDMLGPK	soluble
DGFKIVQFSDAHLSDYFTLEDLKTVILTINESKPDLIVFTGDIIDNPDTYQHHQAVIPLLRKLNAPFGKLCIYGNHDHGGYGTAVYKSLMTAGGFTVYRNGYQTLSLADGSKIEIASLDDFNAGKPRFMQGTLSRLSDRLFSILLVHEPDAALKTTDYPVNLQLSGHTHGGQIQLPFYGPIITPPYGKVYTEGMYQTGSTHIYVNRG	not soluble
NALPAGNYLVASPQRYNPPGVLDSQTELPRLLAQARREVRVQLLDYAPLSYGPDKTRPYYAVIDNAIRSAAARGVSIKLMVSDWNTGMPEVAYLKSLALVPNVQVRIVTLPVAAEGFIPYARVIHSKTMDIDDQVAWVGTSNWLGGYLDNSRNLEVVMHDSTMAKRIGVLHEQLWDGPYAKPIDINRDYPEPH	not soluble
MGSDKIHHHHHHMLDSLFPIKRNYLDRNGHKLQYVNEGQGEPVVMVHGNPSWSFYYRNLVTALSPNHQCIVPDHIGCGLSDKPDDAGYDYTLKNRIDDLEALLDHLEVKEKITLIVHDWGGMIGMGYAARHPERIKKIVVLNTGAFHLPEAKPFPWALWICRNTLLGTVLVRGFNAFSSIASYVGVKRAPMPKAIREAYVAPFNSWANRISTLRFVQDIPLKPGDRNYELVSEISEKLNQFNQLPMMICWGLKDFVFDKHFLDEWKRRFPEAEVHEFADCGHYILEDASDEVVAQVQQFMAR	not soluble
MVRGIRGAITVEEDTPEAIHQATRELLLKMLEANGIQSYEELAAVIFTVTEDLTSAFPAEAARQIGMHRVPLLSAREVPVPGSLPRVIRVLALWNTDTPQDRVRHVYLREAVRLRPDLESAQ	soluble
MGSDKIHHHHHHMTRGIALFFWNRKKATKKISPEPEAAQEVWQRKKYRTNYYTYNSAKERGSLRSKKQRKHEIGEYKLEVGLAHLPRCFRRLSNLLLGTKGRFHQIDHVLISPYGIFLLEANNLSGLIVGEETESKWYQAITWRVKTFPNPIMENQVRVQMLQELAGLDQTIPVFSYVTFNRSCSLKVFSGMVFYDIDLPASIMQLAQNQPAVLSDEEILELVERIEKINLTDLGLRNEYAARQRRERMQYRPKYGDIRCSICQKAVNERMARYCLNRPEKFAWKIYCEKHQREMTRVVRREGGREGHGPYPESTDSKKESMD	not soluble
SKSGAQTPKSPPEHYVQETPLMFSRCTSVSSLDSFESRSIASSVQSEPCSGMVSGIISPSDLPDSPGQTMPPSRSKTPPPPPQTAQTKREVPKNKAPTAEKRESGPKQAAVNAAVQRVQVLPDADTLLHFATESTPDGFSCSSSLSALSLDEPFIQKDVELRIMPPVQENDNGNETESE	soluble
